From PMC11165011, “Proteinase 3 depletion attenuates leukemia by promoting myeloid differentiation” (Cell Death and Differentiation, 2024)

B1: PRTN3 recombinant protein (enzyme, human, UniProt P24158 28-248, looked up)
chain: IVGGHEAQPHSRPYMASLQMRGNPGSHFCGGTLIHPSFVLTAAHCLRDIPQRLVNVVLGAHNVRTQEPTQQHFSVAQVFLNNYDAENKLNDVLLIQLSSPANLSASVATVQLPQQDQPVPHGTQCLAMGWGRVGAHDPPAQVLQELNVTVVTFFCRPHNICTFVPRRKAGICFGDSGGPLICDGIIQGIDSFVIWGCATRLFPDFFTRVALYVDWIRSTLR
notes: Proteinase 3 (PRTN3), human, bought recombinant protein; see the vendor's sheet for HY-P70509; also called hPRTN3; hPR3; source: bought: ACE (HY-P70509)

Columns and labels:
[1] = target: T1, STAT3 recombinant protein (whole STAT3) (human, UniProt P40763 1-770); assay: SPR; Biacore K8, CM5 chip; 'target proteins' at 20 μg/mL in PBS pH 7.2 immobilised by amine coupling at 25 °C (which partner is not stated); 300 s dissociation; steady-state analysis; settings: both partners purified
T1 construct: STAT3, human, bought recombinant protein with the N-terminal domain; In the cleavage test STAT3 ran as a ~120 kDa monomer, which may mean a carrier tag (surmise); also called recombinant human STAT3; source: bought: one of Abcam (Ab43618), ACRO (ST3-H5149), ACE (HY-P70574)

[2] = target: B1; assay: as above; settings: both partners purified

Kd [1] [nM] | Kd [2] [µM] | Binder
224 |  | B1
 | 6.91 | N-terminal domain of STAT3, recombinant (domain or fragment, Limits of the purchased recombinant N-terminal domain are not given; 1-130 is taken from the paper's own shortest Flag-STAT3 truncation (1-130), which matches the usual N-terminal domain boundary. …) MAQWNQLQQLDTRYLEQLHQLYSDSFPMELRQFLAPWIESQDWAYAASKESHATLVFHNLLGEIDQQYSRFLQESNVLYQHNLRRIKQFLQSRYLEKPMEIARIVARCLWEESRLLQTAATAAQQGGQAN
